Test results: paper PMC5045412, “Inhibition of pro-HGF activation by SRI31215, a novel approach to block oncogenic HGF/MET signaling” (Oncotarget, 2016)

T1: recombinant human HGFA (Homo sapiens, UniProt Q04756)
T1 construct: purchased R&D Systems
T1 sequence (Q04756 408-655 limits assumed): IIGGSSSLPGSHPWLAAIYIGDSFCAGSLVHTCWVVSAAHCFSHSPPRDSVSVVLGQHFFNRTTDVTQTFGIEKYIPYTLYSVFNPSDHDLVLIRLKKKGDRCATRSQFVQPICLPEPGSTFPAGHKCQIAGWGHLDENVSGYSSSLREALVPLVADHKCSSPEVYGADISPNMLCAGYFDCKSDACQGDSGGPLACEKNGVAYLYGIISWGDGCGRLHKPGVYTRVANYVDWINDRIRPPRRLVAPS
T1 sequence (Q04756 373-407 partner limits assumed): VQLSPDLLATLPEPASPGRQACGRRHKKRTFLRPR


Legend:
DiFi cells = DiFi cells co-cultured with WI38 fibroblasts, immunoblotting; format: cell-based; details: gefitinib 0.5 μM
Experimental: Figure 7 Fibroblasts protect DiFi cells from EGFRi in an HGF-dependent manner DiFi cells were treated with gefitinib (0.5 μM) alone or were co-cultured with WI38 fibroblasts (FIB) in the absence or the presence of SRI 31215 (10 μM) or JNJ38877605 (1 μM). The DiFi cell lysates were isolated after 4 or 24 hours as indicated and examined for the expression of pERK and total ERK, pEGFR and total EGFR, cleaved PARP, β-catenin gelsolin and β-actin by immunoblotting.
Immunoblotting was performed using standard procedures. Membranes were blocked with 5% non-fat milk for 1 hour at RT, and incubated with primary antibodies overnight at 4°C. Primary antibodies used were anti-HGF (R&D Systems), anti-MET, anti-p-MET, anti-p-GAB1, anti-p-AKT, anti-p-ERK1/2, anti-vimentin (Cell Signaling Technology), anti-p-STAT3 (Upstate Cell Signaling Solutions), anti-E-cadherin (BD Transduction Laboratories), anti-β-actin (Sigma). Following washing with TBS-T buffer, membranes were incubated with horseradish peroxidase-conjugated secondary antibodies for 1 hour and then washed with TBS-T. Immunoblots were developed using the chemiluminescent detection system with ECL (Amersham). Protein loading was normalized by probing blots for the expression of β-actin.

recombinant human HGFA = target: T1, recombinant human HGFA; assay: Proteolytic activation of pro-HGF by HGFA (immunoblotting); format: biochemical; details: SRI 31215 10 μM, HAI-1 20 nM, HGFA 1 nM
Experimental: Recombinant human HAI-1, recombinant human HGFA, and recombinant human HGF propeptide (pro-HGF) were purchased from R&D Systems. SRI 31215 (10 μM) or recombinant human HAI-1 (20 nM) were mixed with activated recombinant human HGFA pro-peptide (1nM) in TNC buffer (pH 8.0) and incubated at room temperature for 30 minutes. Recombinant human pro-HGF (40 ng) was added and incubated at 37°C for 1 hour. The reaction was stopped by SDS-PAGE gel sample buffer and samples were boiled and separated by 12% PAGE. Proteins were transferred onto nitrocellulose membrane, blocked with 5% milk and immunoblotted using antibodies that recognize pro-HGF as well as α and β chains of activated HGF.

RKO cells = assay: Clonogenic growth and viability of HGF-producing RKO cells with EGFR inhibitors; format: cell-based; details: RKO cells, SRI 31215 10 μM, JNJ 38877605 1 μM, HAI-1 20 nM
Experimental: Figure 5 Inhibitors of HGF/MET signaling prevent the innate and acquired resistance to cetuximab A. and B. RKO cells were treated with cetuximab (50 μg/ml) (A) of gefitinib (B) alone, or in combination with SRI 31215 (10 μM), JNJ 38877605 (1 μM) or recombinant HAI-1 (20 nM) as indicated and clonogenic growth was monitored as described in Materials and Methods. C. and D. Caco2 cells were treated with cetuximab or gefitinib alone or in the presence of CM from fibroblasts and SRI 31215 (10 μM) or JNJ 38877605 (1 μM) as indicated. #: p<0.05, compared to control (CTRL); NS: not significant.
Cell titer-glo luminescent cell viability assay kit was purchased from Promega. […] For clonogenic assay, cells were seeded in 6-well plates at a density of 400 cells per well, serum starved overnight, and treated as indicated. After colony formation (8-12 days), cells were stained with crystal violet and the number of colonies was determined using ImageQuantTL (GE Health Care Life Sciences).
Supplementary Figure S3: Inhibition of HGF/MET signaling sensitizes HGF-producing RKO colon cancer cells to gefitinib. A. RKO cells (HGF+) and B. HT29 (HGF-) cells were treated with gefitinib (5 μM) in the absence or the presence of SRI 31215 (10 μM) or JNJ 38877605 (1 μM) as indicated and viability was determined 24 and 72 hours after treatment. # indicates statistical significance compared to samples treated with gefitinib alone as determined by Students’ t-test (p<0.05).
(also on this page, place not known: www.impactjournals.com/oncotarget/ Oncotarget, Materials 2016 Supplementary (HGF +) (HGF -)) […]

HGFA-induced cleavage of pro-HGF into alpha and beta chains (recombinant human HGFA) | Molecule | levels of β-catenin (DiFi cells) | clonogenic growth, agent alone (RKO cells) | clonogenic growth, combination with cetuximab (RKO cells; cetuximab 50 μg/ml)
 | COc1cc2ncnc(Nc3ccc(F)c(Cl)c3)c2cc1OCCCN1CCOCC1 [Gefitinib] | reduced |  | 
inhibited | HAI-1: recombinant human HAI-1, endogenous inhibitor of HGF activation, positive control (protein, UniProt O43278 36-529, looked up) Kunitz-type protease …: GPPPAPPGLPAGADCLNSFTAGVPGFVLDTNASVSNGATFLESPTVRRGWDCVRACCTTQNCNLALVELQPDRGEDAIAACFLINCLYEQNFVCKFAPREGFINYLTREVYRSYRQLRTQGFGGSGIPKAWAGIDLKVQPQEPLVLKDVENTDWRLLRGDTDVRVERKDPNQVELWGLKEGTYLFQLTVTSSDHPEDTANVTVTVLSTKQTEDYCLASNKVGRCRGSFPRWYYDPTEQICKSFVYGGCLGNKNNYLREEECILACRGVQGGPLRGSSGAQATFPQGPSMERRHPVCSGTCQPTQFRCSNGCCIDSFLECDDTPNCPDASDEAACEKYTSGFDELQRIHFPSDKGHCVDLPDTGLCKESIPRWYYNPFSEHCARFTYGGCYGNKNNFEEEQQCLESCRGISKKDVFGLRREIPIPSTGSVEMAVAVFLVICIVVVVAILGYCFFKNQRKDFHGHHHHPPPTPASSTVSTTEDTEHLVYNHTTRPL |  | did not impact | significant decrease
